Consider four molecules from publication PMC9482650, “Quantitative fragmentomics allow affinity mapping of interactomes” (Nature Communications, 2022).

Targets include AHNAK1, Q09666; DLG2_3, Q15700; GORASP2, Q9H8Y8; GRIP2_3, Q9C0E4; GRIP2_5, Q9C0E4; HTRA2, O43464; Inadl_4, Q8NI35; TJP1_2, Q07157.
Assay in all cases: holdup assay
What all share (design): key: below the threshold = too weak to quantify, mostly under pKd 3.1 to 4

The target of the next experiment is T1, APBA1_1, Q02410.
T1 sequence (Q02410 651-752, limits assumed, looked up): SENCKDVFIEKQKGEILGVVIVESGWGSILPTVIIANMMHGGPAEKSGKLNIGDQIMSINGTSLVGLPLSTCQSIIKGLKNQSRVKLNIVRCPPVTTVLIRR

For the next experiment, the target named is T2, CARD11, Q9BXL7.
T2 sequence (Q9BXL7 662-765, limits assumed, looked up): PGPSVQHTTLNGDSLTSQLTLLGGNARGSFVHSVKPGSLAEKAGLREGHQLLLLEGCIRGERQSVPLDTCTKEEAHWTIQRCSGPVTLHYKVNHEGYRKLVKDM

The next experiment addresses T3, DFNB31_2, Q9P202.
T3 sequence (Q9P202 274-371, limits assumed, looked up): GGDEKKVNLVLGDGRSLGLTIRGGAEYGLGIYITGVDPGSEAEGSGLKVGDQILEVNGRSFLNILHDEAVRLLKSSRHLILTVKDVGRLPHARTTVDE

The target of a further experiment is T4, GRIP1_2, Q9Y3R0.
T4 sequence (Q9Y3R0 145-248, limits assumed, looked up): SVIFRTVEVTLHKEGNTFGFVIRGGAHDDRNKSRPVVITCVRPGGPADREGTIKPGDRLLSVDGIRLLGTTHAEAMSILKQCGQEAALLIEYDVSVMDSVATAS

For another experiment, the target named is T5, GRIP1_3, Q9Y3R0.
T5 sequence (Q9Y3R0 247-346, limits assumed, looked up): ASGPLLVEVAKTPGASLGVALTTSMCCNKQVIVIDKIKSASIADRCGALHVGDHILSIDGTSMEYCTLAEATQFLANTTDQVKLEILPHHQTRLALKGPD

The next experiment deals with T6, GRIP1_5, Q9Y3R0.
T6 sequence (Q9Y3R0 568-668, limits assumed, looked up): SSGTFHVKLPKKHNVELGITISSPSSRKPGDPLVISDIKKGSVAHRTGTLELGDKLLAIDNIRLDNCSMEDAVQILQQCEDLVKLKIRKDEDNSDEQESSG

The target in the next experiment is T7, LNX2_2, Q8N448.
T7 sequence (Q8N448 334-432, limits assumed, looked up): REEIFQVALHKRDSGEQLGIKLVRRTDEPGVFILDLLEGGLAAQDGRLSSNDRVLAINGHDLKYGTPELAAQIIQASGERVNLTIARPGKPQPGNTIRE

In another experiment the target is T8, MPDZ_10, O75970.
T8 sequence (O75970 1624-1722, limits assumed, looked up): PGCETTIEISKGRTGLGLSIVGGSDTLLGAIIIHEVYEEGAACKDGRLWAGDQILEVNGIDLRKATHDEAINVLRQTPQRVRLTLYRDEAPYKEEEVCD

A further experiment deals with T9, MPP6, Q9NZW5.
T9 sequence (Q9NZW5 125-219, limits assumed, looked up): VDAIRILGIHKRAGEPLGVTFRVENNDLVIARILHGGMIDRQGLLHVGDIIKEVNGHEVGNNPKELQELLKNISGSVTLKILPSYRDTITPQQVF

The target of a further experiment is T10, PTPN13_1, Q12923.
T10 sequence (Q12923 1088-1188, limits assumed, looked up): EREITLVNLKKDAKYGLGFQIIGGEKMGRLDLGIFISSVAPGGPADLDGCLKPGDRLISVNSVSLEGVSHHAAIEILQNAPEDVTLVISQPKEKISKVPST

For a further experiment, the target named is T11, SIPA1L2, Q9P2F8.
T11 sequence (Q9P2F8 945-1036, limits assumed, looked up): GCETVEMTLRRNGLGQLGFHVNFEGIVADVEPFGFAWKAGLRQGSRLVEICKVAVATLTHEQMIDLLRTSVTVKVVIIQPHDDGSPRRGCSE

In the next experiment the target is T12, SNTA1, Q13424.
T12 sequence (Q13424 82-180, limits assumed, looked up): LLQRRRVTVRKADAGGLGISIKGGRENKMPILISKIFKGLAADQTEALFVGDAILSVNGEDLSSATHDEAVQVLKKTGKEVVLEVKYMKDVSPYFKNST

The next experiment addresses T13, TJP3_3, O95049.
T13 sequence (O95049 375-456, limits assumed, looked up): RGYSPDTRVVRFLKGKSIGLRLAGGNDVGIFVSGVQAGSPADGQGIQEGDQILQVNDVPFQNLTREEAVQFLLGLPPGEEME

The next experiment deals with T14, TX1BP3, O14907.
T14 sequence (O14907 10-122, limits assumed, looked up): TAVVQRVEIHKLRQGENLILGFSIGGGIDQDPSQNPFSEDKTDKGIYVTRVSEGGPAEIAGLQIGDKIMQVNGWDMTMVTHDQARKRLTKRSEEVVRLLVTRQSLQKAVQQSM

The mark [1] stands for this setting: plain residues with an end cap or a label only (N-terminal biotin on a linker: ahx).
The mark [2] stands for this setting: plain residues with an end cap or a label only (N-terminal biotin on a linker: ado-ado).

GRIP2_5, Q9C0E4, sequence (Q9C0E4 544-642): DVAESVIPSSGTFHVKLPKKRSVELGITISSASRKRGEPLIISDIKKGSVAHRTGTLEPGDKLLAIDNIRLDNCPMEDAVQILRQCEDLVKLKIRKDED
Inadl_4, Q8NI35, sequence (Q8NI35 547-651): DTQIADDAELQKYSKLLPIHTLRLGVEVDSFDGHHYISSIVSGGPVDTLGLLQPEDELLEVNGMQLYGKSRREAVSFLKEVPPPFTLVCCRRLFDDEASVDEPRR
TJP1_2, Q07157, sequence (Q07157 181-274): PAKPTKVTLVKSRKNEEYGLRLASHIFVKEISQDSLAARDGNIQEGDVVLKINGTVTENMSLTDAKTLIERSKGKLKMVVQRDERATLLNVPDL
GRIP2_3, Q9C0E4, sequence (Q9C0E4 238-339): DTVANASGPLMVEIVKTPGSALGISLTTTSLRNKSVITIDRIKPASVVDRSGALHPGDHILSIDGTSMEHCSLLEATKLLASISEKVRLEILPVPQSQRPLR
HTRA2, O43464, sequence (O43464 355-458): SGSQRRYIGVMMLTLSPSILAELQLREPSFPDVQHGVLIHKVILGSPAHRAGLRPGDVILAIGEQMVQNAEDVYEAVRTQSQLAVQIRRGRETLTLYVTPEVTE
AHNAK1, Q09666, sequence (Q09666 4-100): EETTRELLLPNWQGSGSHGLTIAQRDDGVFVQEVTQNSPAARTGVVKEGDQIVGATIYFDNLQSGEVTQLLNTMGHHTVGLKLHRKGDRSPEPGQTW

The pKd is −log10 of the Kd, conventionally taken in molar units. For NRKREIFSNF [NHERF2, Q15599], the pKd entry in the experiment with AHNAK1, Q09666 (setting [1]) is “below the threshold”; with APBA1_1, Q02410 (setting [1]), “below the threshold”; with CARD11, Q9BXL7 (setting [1]) it was “below the threshold”; in the experiment with DFNB31_2, Q9P202 (setting [1]) it was “below the threshold”; with DLG2_3, Q15700 (setting [1]), “below the threshold”; in the experiment with GORASP2, Q9H8Y8 (setting [1]), “below the threshold”. Moreover, the pKd result in the experiment with GRIP1_2, Q9Y3R0 (setting [1]) is on record as “below the threshold”; with GRIP1_3, Q9Y3R0 (setting [1]), “below the threshold”; in the experiment with GRIP1_5, Q9Y3R0 (setting [1]), “below the threshold”; in the experiment with GRIP2_3, Q9C0E4 (setting [1]), “below the threshold”; with GRIP2_5, Q9C0E4 (setting [1]), “below the threshold”; in the experiment with HTRA2, O43464 (setting [1]) it was “below the threshold”. In addition, the pKd result with Inadl_4, Q8NI35 (setting [1]) is “below the threshold”; in the experiment with LNX2_2, Q8N448 (setting [1]), “below the threshold”; in the experiment with MPDZ_10, O75970 (setting [1]), “below the threshold”; in the experiment with MPP6, Q9NZW5 (setting [1]), “below the threshold”; with PTPN13_1, Q12923 (setting [1]), “below the threshold”; in the experiment with SIPA1L2, Q9P2F8 (setting [1]), “below the threshold”. Further, the pKd entry with SNTA1, Q13424 (setting [1]) was “below the threshold”; with TJP1_2, Q07157 (setting [1]), “below the threshold”; with TJP3_3, O95049 (setting [1]), “below the threshold”; with TX1BP3, O14907 (setting [1]), “below the threshold”.
Regarding RRRKRKRTYL [HPV49-L2, P36762], the pKd in the experiment with AHNAK1, Q09666 (setting [1]) is 3.56; with APBA1_1, Q02410 (setting [1]), 3.71; with CARD11, Q9BXL7 (setting [1]), “below the threshold”; in the experiment with DFNB31_2, Q9P202 (setting [1]), “below the threshold”; in the experiment with DLG2_3, Q15700 (setting [1]), 3.54; with GORASP2, Q9H8Y8 (setting [1]), 4.81. Moreover, the pKd entry was “below the threshold” with GRIP1_2, Q9Y3R0 (setting [1]); “below the threshold” in the experiment with GRIP1_3, Q9Y3R0 (setting [1]); “below the threshold” in the experiment with GRIP1_5, Q9Y3R0 (setting [1]); “below the threshold” in the experiment with GRIP2_3, Q9C0E4 (setting [1]); “below the threshold” with GRIP2_5, Q9C0E4 (setting [1]); 3.49 in the experiment with HTRA2, O43464 (setting [1]). The pKd entry in the experiment with Inadl_4, Q8NI35 (setting [1]) was “below the threshold”; with LNX2_2, Q8N448 (setting [1]), “below the threshold”; with MPDZ_10, O75970 (setting [1]), 3.94; with MPP6, Q9NZW5 (setting [1]), “below the threshold”; in the experiment with PTPN13_1, Q12923 (setting [1]), “below the threshold”; in the experiment with SIPA1L2, Q9P2F8 (setting [1]), “below the threshold”. In addition, the pKd with SNTA1, Q13424 (setting [1]) is 3.69; with TJP1_2, Q07157 (setting [1]) it was 3.49; with TJP3_3, O95049 (setting [1]), “below the threshold”; in the experiment with TX1BP3, O14907 (setting [1]) it was 3.48.
Turning to PLSPEQPTKL [TRIM50, Q86XT4], the pKd result with AHNAK1, Q09666 (setting [2]) is given as “below the threshold”; with APBA1_1, Q02410 (setting [2]), “below the threshold”; in the experiment with CARD11, Q9BXL7 (setting [2]), “below the threshold”; with DFNB31_2, Q9P202 (setting [2]), “below the threshold”; in the experiment with DLG2_3, Q15700 (setting [2]), “below the threshold”; with GORASP2, Q9H8Y8 (setting [2]), “below the threshold”. Besides, the pKd entry in the experiment with GRIP1_2, Q9Y3R0 (setting [2]) was “below the threshold”; with GRIP1_3, Q9Y3R0 (setting [2]) it was “below the threshold”; with GRIP1_5, Q9Y3R0 (setting [2]), “below the threshold”; in the experiment with GRIP2_3, Q9C0E4 (setting [2]), “below the threshold”; with GRIP2_5, Q9C0E4 (setting [2]), “below the threshold”; in the experiment with HTRA2, O43464 (setting [2]) it was “below the threshold”. For the same molecule, the pKd result with Inadl_4, Q8NI35 (setting [2]) was “below the threshold”; in the experiment with LNX2_2, Q8N448 (setting [2]) it was “below the threshold”; in the experiment with MPDZ_10, O75970 (setting [2]), “below the threshold”; in the experiment with MPP6, Q9NZW5 (setting [2]) it was 3.63; with PTPN13_1, Q12923 (setting [2]), “below the threshold”; in the experiment with SIPA1L2, Q9P2F8 (setting [2]), “below the threshold”. In addition, the pKd entry with SNTA1, Q13424 (setting [2]) is given as “below the threshold”; in the experiment with TJP1_2, Q07157 (setting [2]), “below the threshold”; with TJP3_3, O95049 (setting [2]) it was “below the threshold”; with TX1BP3, O14907 (setting [2]) it was “below the threshold”.
In the case of RAVEEEESRF [PSCDBP, O60759], the pKd entry with AHNAK1, Q09666 (setting [1]) was “below the threshold”; in the experiment with APBA1_1, Q02410 (setting [1]) it was “below the threshold”; with CARD11, Q9BXL7 (setting [1]), “below the threshold”; with DFNB31_2, Q9P202 (setting [1]), “below the threshold”; in the experiment with DLG2_3, Q15700 (setting [1]), “below the threshold”; with GORASP2, Q9H8Y8 (setting [1]), “below the threshold”. Moreover, the pKd result is “below the threshold” with GRIP1_2, Q9Y3R0 (setting [1]); “below the threshold” in the experiment with GRIP1_3, Q9Y3R0 (setting [1]); “below the threshold” with GRIP1_5, Q9Y3R0 (setting [1]); “below the threshold” with GRIP2_3, Q9C0E4 (setting [1]); “below the threshold” with GRIP2_5, Q9C0E4 (setting [1]); “below the threshold” with HTRA2, O43464 (setting [1]). Also, the pKd result in the experiment with Inadl_4, Q8NI35 (setting [1]) is reported as “below the threshold”; in the experiment with LNX2_2, Q8N448 (setting [1]), “below the threshold”; in the experiment with MPDZ_10, O75970 (setting [1]) it was “below the threshold”; with MPP6, Q9NZW5 (setting [1]), “below the threshold”; with PTPN13_1, Q12923 (setting [1]), “below the threshold”; with SIPA1L2, Q9P2F8 (setting [1]), “below the threshold”. Besides, the pKd entry with SNTA1, Q13424 (setting [1]) is “below the threshold”; with TJP1_2, Q07157 (setting [1]), “below the threshold”; with TJP3_3, O95049 (setting [1]), “below the threshold”; with TX1BP3, O14907 (setting [1]), “below the threshold”.
